± gives the standard deviation of the averaged measurements.
Tested on: ATP
Assay: switch fluorescence ratio, 500 uM ATP over buffer (Cy3 cluster intensity, sum of 5 cycles each) (fold (ratio)); higher = stronger signal-on switching upon ATP binding; sequences stand for … in TCGTCGGCAGCGTCAGATGTGTATAAGAGACAGTTTTTTTTTTTTTTTTTTTTTTTTT…TC
Conditions: aptamer strand: ATP DNA aptamer (quencher-CACCTGGGGGAGTATTGCGGAGGAAGG + anchor), 100 nM annealed; ATP concentration: 500 uM
Outline: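 Clusters carrying Cy3-labelled switching strands on a modified Illumina MiSeq flow-cell were annealed to 100 nM quencher-labelled ATP aptamer and imaged in selection buffer. They were imaged again after 15 min with 500 uM ATP at 22 °C, over five buffer/ATP cycles with NaOH stripping and re-annealing in between. For each cluster, the fluorescence ratio is the summed Cy3 intensity of the target cycles divided by that of the buffer cycles, averaged per switch-domain sequence. Clusters outside 100-1000 RFU were left out.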
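Further: ATP exposure 15 min at 22 °C before imaging.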

Sequence	switch fluorescence ratio
ACCTACGCGG	1.97 ± 0.22
CTCAGTAGGG	0.975 ± 0.024
GCGTTCGGCC	1.01 ± 0.016
AACAATATTG	1.02 ± 0.028
AAGGACCGGC	0.991 ± 0.057
CCATTGTAGC	1.03 ± 0.024
ATTAAAGGGG	1 ± 0.023
GGTGTAGAGG	1.012 ± 0.0022
TATTGTGCTT	0.982 ± 0.035
TATGTGACTT	1.03 ± 0.0074
TGGTGATTAG	0.995 ± 0.023
CCGCTAGGGC	2.1 ± 1.2
GTCTAACTTA	1.01 ± 0.033
GGGTGTAGAG	1.05 ± 0.078
GAACTTCGGT	0.946 ± 0.013
AGGGAAGTTG	1.01 ± 0.07
TTGGCCTATA	0.973 ± 0.021
TGGGTTAAGA	1.01 ± 0.034
GCTTTTTGCG	1.01 ± 0.03
TGTATTTTTG	1.02 ± 0.029
TTTGTCGCGG	1.02 ± 0.025
ATCGTGAGGC	1.05 ± 0.022
TGATGGTGCC	0.986 ± 0.014
TGGATTTTGG	0.98 ± 0.021
TTGTTAATGT	1.06 ± 0.17

Sequence	switch fluorescence ratio
GATGACAGAG	0.974 ± 0.047
TTCATTTCGG	1.001 ± 0.0025
GAGGGGGTTG	1.01 ± 0.048
ATTGCAATGT	1.036 ± 0.0055
GGCACTAGGG	0.94 ± 0.077
GGGGGGTCGC	0.99 ± 0.041
TTTTCTAGGG	1.01 ± 0.017
GGCTTTACGG	1.012 ± 0.0081
AAGGCGTAC	1.24 ± 0.17
GTTTGTACCT	1.13 ± 0.1
GAGGTAGATA	1.03 ± 0.046
CCGTGCTCTA	1.281 ± 0.0015
CGTTGTTTCT	0.967 ± 0.024
TTTAACTCTG	1 ± 0.011
GGATTCGAAG	0.9953 ± 0.0071
GAGGTTATCA	1.01 ± 0.013
GCTAGAAGGT	1.01 ± 0.03
ACGGTTTTTG	0.993 ± 0.029
GGGGCTTGGG	0.989 ± 0.043
ATAGGGGTT	1.021 ± 0.005
GATCATAGTT	0.995 ± 0.013
CAGAGTTAAT	0.993 ± 0.045
AAATATGACT	1.06 ± 0.058
CGGGCTAAGG	0.986 ± 0.018
GGGGGGACTT	0.983 ± 0.029

Sequence	switch fluorescence ratio
GTAGTTACTT	0.995 ± 0.051
TTTAGATGGG	0.989 ± 0.029
CAGTTTTGAG	0.9917 ± 0.0014
GGTACCATTG	0.991 ± 0.03
AACATAGGTG	1.14 ± 0.056
AGAATGGGGA	1.02 ± 0.0092
TGCAGTGGTT	1.01 ± 0.03
TTCCTTTTGT	1.29 ± 0.43
ATGAGCGACG	0.9921 ± 0.0088
TCTCGTTGGG	1.012 ± 0.005
AGAGGTGACA	0.999 ± 0.061
CTTTGGCTTT	0.967 ± 0.014
CTCCGGGAAA	1.214 ± 0.0036
CTTGATTTTT	1 ± 0.016
TTAAAGCACT	1.19 ± 0.2
GACAGGGTTA	1.001 ± 0.0086
TGCTAATCTG	0.958 ± 0.025
AGTCCGGGTT	0.991 ± 0.036
GTTTGTAACG	1.02 ± 0.015
GGAATGGTCG	0.977 ± 0.13
AAGGTCGGGT	1.01 ± 0.043
GGGAGTGGGG	0.989 ± 0.025
AGCGGTGTGC	0.9738 ± 0.0031
TCGTGTTCTG	1.01 ± 0.029
CGAGTAGGGG	1.01 ± 0.025

Sequence	switch fluorescence ratio
TTGGTATGTA	1 ± 0.018
TTTAAGGGA	0.9897 ± 0.0045
TCAGTCGGAT	0.9768 ± 0.0078
TCTATAAGTT	1.02 ± 0.044
TTAAGAGGG	0.987 ± 0.014
TATGGGATTG	0.998 ± 0.021
TGTTTGTATC	1.01 ± 0.016
CGGGTGTGGA	1.05 ± 0.04
AGTGCGTTTC	0.996 ± 0.031
GTGTGCTGTG	1.01 ± 0.063
ATGTTCTATA	0.97751 ± 0.00084
AACAATTCTG	1.01 ± 0.012
GATGGAGTTC	0.983 ± 0.029
GTTTCAGTGT	0.972 ± 0.021
AAATAATGGT	1.02 ± 0.041
TCACTGGGTT	1.01 ± 0.068
GGTTAGGGGC	0.995 ± 0.04
TTTAATGCCG	0.954 ± 0.027
TACATTGTGC	1.01 ± 0.015
GTAGGTCGAC	1.01 ± 0.012
TATAATGGGC	0.965 ± 0.031
TGGGGTTTCC	1.16 ± 0.32
GTTTTGTTTT	0.9758 ± 0.0063
GATACTGATC	1.13 ± 0.042
ATGTGTTTTT	0.98 ± 0.036

Sequence	switch fluorescence ratio
CTTTCTCAA	1.32 ± 0.44
GGGGGTCATC	0.971 ± 0.011
TGTAGTCTTT	1.03 ± 0.052
CATGGGGGCG	1.01 ± 0.078
CGAAGGCTGG	1.0003 ± 0.00038
CGGATCGGAT	0.976 ± 0.04
AAGGGAGGAC	0.9939 ± 0.002
ATTCTATCGT	1.01 ± 0.015
AAAGAGTGAT	1.022 ± 0.0062
TTAGCATGTT	1 ± 0.022
ATTCTGGTGC	1.12 ± 0.025
TGCTGCGGCT	1.01 ± 0.019
TGGGGCGTCT	1.01 ± 0.043
CTGGGTTTGG	1 ± 0.025
GGGAGCCAGT	1.05 ± 0.12
GCTATTTTTC	1 ± 0.042
GCTTTACAGA	1 ± 0.016
GGCCGAGCTC	1.012 ± 0.0085
TTGGGGTCCC	1 ± 0.037
TAGTGGTTT	0.986 ± 0.024
TTTTTTGCAA	1.06 ± 0.061
TGAGAATTTT	0.996 ± 0.032
GATGTTGCTT	1.02 ± 0.055
GGTTGGCATA	0.984 ± 0.016
ATGGTTGTGC	0.991 ± 0.026

Sequence	switch fluorescence ratio
TGGTCCCCGG	0.997 ± 0.025
TAAGTTCCTG	1 ± 0.026
GATAGAGGTG	1.32 ± 0.62
AAAAGGTTTC	1.02 ± 0.024
TCGCGAAGGG	1.01 ± 0.013
ACACCGTCTA	1.11 ± 0.023
CCGGGTTTTG	1.017 ± 0.0016
GGGATAGTTT	1 ± 0.063
GGGGTTATTG	0.986 ± 0.038
TTCGGGGAAC	1.06 ± 0.11
CATAGGATCG	0.949 ± 0.038
ATTACGTTGG	0.998 ± 0.024
GCCCGGAGCG	1.68 ± 0.13
GGTGTTTAAT	0.979 ± 0.016
TCAGGTATCG	1 ± 0.021
AAATTTCTTA	1 ± 0.026
TGGTGGGGCG	1.11 ± 0.051
ATATTTCCTA	0.989 ± 0.033
TGCTTTAAAC	0.995 ± 0.032
TGGGTTAAAG	0.993 ± 0.016
GGATTACTGG	1.03 ± 0.023
CTGTTTGGGT	0.9759 ± 0.0026
GAGGAGAGGT	1 ± 0.015
TCGGGTCTGC	1.01 ± 0.015
GATAGAAAGC	0.9852 ± 0.0027

Sequence	switch fluorescence ratio
ACGGATCCTT	1.026 ± 0.0059
AGGGGCTTCG	1.04 ± 0.015
AGTGCGGACA	1 ± 0.051
TAAAGGATTC	0.979 ± 0.045
TTGTCCTGCG	0.965 ± 0.019
ATCTATGCTT	0.989 ± 0.023
CTAGGGGTAT	1.03 ± 0.14
CTCGATAGTA	0.9741 ± 0.003
TTGGAATTGT	1.005 ± 0.0075
ATCATGGAGG	0.993 ± 0.017
TTTCACGCGC	1.03 ± 0.016
GTTTTCGGCC	0.996 ± 0.029
TTAGCAACGA	1.09 ± 0.039
TTATCGGATT	0.983 ± 0.029
CGGATTGAAT	1 ± 0.072
TTGTTATGTA	0.982 ± 0.026
GTGTGAGTTA	0.992 ± 0.034
AGGCGTTTAG	1.03 ± 0.059
TTTTTTGGAC	1.01 ± 0.045
CGTGACCGGG	0.996 ± 0.016
TTGGGTTTAT	0.999 ± 0.017
CGATAAGAAG	1.01 ± 0.017
AGTGGTTTAT	0.985 ± 0.014
GGTCGGGGAT	1.01 ± 0.022
TGGGAGACGG	1.2 ± 0.38

Sequence	switch fluorescence ratio
TTGAGCTGTT	0.981 ± 0.033
AAAGTGATTA	1.01 ± 0.022
TGCAGGGGCG	1.04 ± 0.14
ATTTCTAGGA	0.987 ± 0.015
GCCGCGGGAG	1.096 ± 0.0063
TCTATAAGGA	1.01 ± 0.048
GGTTTAGGCA	0.999 ± 0.027
TGATGCATAA	1.04 ± 0.034
GGAAGGGCGG	1.01 ± 0.048
TGCTGGGCC	1.02 ± 0.083
GATATAATGG	0.9999 ± 0.0019
GGGCACGAAG	1 ± 0.013
TTGTTTTAAT	0.999 ± 0.02
TGCGATTCG	0.9931 ± 0.0076
ATATCGCTGA	0.987 ± 0.013
TAAAGGCGGT	0.983 ± 0.042
TTTTTTCGAG	1 ± 0.05
GCAAAACGGG	1.02 ± 0.069
ATTGTTTGCG	0.966 ± 0.035
TATGTTGTAT	0.984 ± 0.053
GTGGGTGCAG	1.03 ± 0.041
AATTTTTCAG	0.985 ± 0.018
GGATGGCTTC	0.9987 ± 0.0023
CGGGGTGCTT	1.01 ± 0.012
AAGAAGAGGA	1 ± 0.011

From the supplement of paper PMC10126150
